This passage reports koff, kon and Kd results from patent US20090041744A1 (published 2009).

Assay [1] concerns the target T1, FVIIa 407C (human, UniProt P08709 61-212; P08709 213-466, N-glycosylated Asn322; engineered Cys407 is largely in mixed disulfides with glutathione, cysteine and homocysteine in the untreated preparation; whether the SPR sample was selectively reduced is not …).
T1 construct: range 1-152;range 153-406; Recombinant, expressed in BHK cells; DNA construct as described in WO 02/077218 A1; Light and heavy chain are joined by a disulfide bond; also called Factor VIIa 407C; FVII 407C
T1 sequence (light): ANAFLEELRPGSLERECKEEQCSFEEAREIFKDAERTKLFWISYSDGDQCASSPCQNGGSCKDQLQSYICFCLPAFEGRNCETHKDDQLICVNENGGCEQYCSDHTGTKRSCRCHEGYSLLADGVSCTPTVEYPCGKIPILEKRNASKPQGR
T1 sequence (heavy): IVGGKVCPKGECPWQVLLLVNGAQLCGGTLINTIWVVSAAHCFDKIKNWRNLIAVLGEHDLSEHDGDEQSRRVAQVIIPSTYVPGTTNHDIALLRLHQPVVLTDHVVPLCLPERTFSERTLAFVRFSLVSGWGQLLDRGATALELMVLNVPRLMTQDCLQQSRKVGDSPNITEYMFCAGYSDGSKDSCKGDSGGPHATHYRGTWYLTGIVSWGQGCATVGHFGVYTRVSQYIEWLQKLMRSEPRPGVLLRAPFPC
In words: SPR (Biacore 3000), biotinylated sTF E219C on SA chip, FVIIa as analyte, 5 mM CaCl2, 1:1 Langmuir fit. The method, then: (§1) Surface plasmon resonance (SPR) analysis of the binding of FVIIa 407C, FVIIa 407C-PEG3.4 k-FVIIa 407C, and FVIIa 407C-PEG20k-FVIIa 407C to immobilized soluble tissue factor—Binding of FVIIa 407C and PEGylated variants to immobilized soluble tissue factor was analyzed by surface plasmon resonance analysis on a Biacore 3000 instrument (Biacore AB, Uppsala, Sweden). Prior to immobilization, sTF E219C was biotinylated at its free cysteine by reacting the protein with 2 mM biotin-PEO-iodoacetamide at pH 7.0 for 20 min. Excess reagent was subsequently removed by gelfiltration on a NAP™5 column (Amersham Biosciences AB, Uppsala, Sweden) equilibrated in HBS-P buffer (10 mM HEPES, 150 mM NaCl, 0.005% P20; Biacore AB, Uppsala, Sweden) containing 5 mM CaCl₂. Biotinylated sTF E19C was immobilized at a density of 2.2 fmol/mm² (˜50 RU) in flow cell 2 of a SA sensor chip (Biacore AB, Uppsala, Sweden). Kinetic analysis was performed at a flow rate of 30 μl/min in running buffer (HBS-P buffer containing 5 mM CaCl₂) using the untreated flow cell 1 for automatic in-line reference subtraction. Serial dilutions of protein from 100 nM to approx. 5 nM were analyzed. Following 3 min equilibration of the flow cells in running buffer, 90 μl protein sample was injected using the KINJECT command. The dissociation phase lasted 9 min and regeneration was performed with a 3-min pulse of 20 mM EDTA in HBS-P buffer. […]
(In general: In SPR one partner is held on a chip, and binding of the other changes the refractive index at the surface.)

Assay [2] deals with T2, FVIIa 407C-PEG3.4k-FVIIa 407C (human, UniProt P08709 61-212; P08709 213-466, N-glycosylated Asn322; Cys407 of the two protomers cross-linked through maleimide-PEG3.4k-maleimide; 10 gamma-carboxylated glutamic acid (GLA) residues; O-glycosylated Ser52 and Ser60; N-glycosylated …).
T2 construct: range 1-152;range 153-406
T2 sequence (light): T1 sequence (light)
T2 sequence (heavy): T1 sequence (heavy)
In words: SPR (Biacore 3000), biotinylated sTF E219C on SA chip, FVIIa dimer as analyte, 5 mM CaCl2, 1:1 Langmuir fit. Here is the method:
(§2) Surface plasmon resonance (SPR) analysis of the binding of FVIIa 407C, FVIIa 407C-PEG3.4 k-FVIIa 407C, and FVIIa 407C-PEG20k-FVIIa 407C to immobilized soluble tissue factor—Binding of FVIIa 407C and PEGylated variants to immobilized soluble tissue factor was analyzed by surface plasmon resonance analysis on a Biacore 3000 instrument (Biacore AB, Uppsala, Sweden). Prior to immobilization, sTF E219C was biotinylated at its free cysteine by reacting the protein with 2 mM biotin-PEO-iodoacetamide at pH 7.0 for 20 min. Excess reagent was subsequently removed by gelfiltration on a NAP™5 column (Amersham Biosciences AB, Uppsala, Sweden) equilibrated in HBS-P buffer (10 mM HEPES, 150 mM NaCl, 0.005% P20; Biacore AB, Uppsala, Sweden) containing 5 mM CaCl₂. Biotinylated sTF E19C was immobilized at a density of 2.2 fmol/mm² (˜50 RU) in flow cell 2 of a SA sensor chip (Biacore AB, Uppsala, Sweden). Kinetic analysis was performed at a flow rate of 30 μl/min in running buffer (HBS-P buffer containing 5 mM CaCl₂) using the untreated flow cell 1 for automatic in-line reference subtraction. Serial dilutions of protein from 100 nM to approx. 5 nM were analyzed. Following 3 min equilibration of the flow cells in running buffer, 90 μl protein sample was injected using the KINJECT command. The dissociation phase lasted 9 min and regeneration was performed with a 3-min pulse of 20 mM EDTA in HBS-P buffer. SPR data were fitted to a 1:1 Langmuir binding model using BIAevaluation 4.1 software (Biacore AB, Uppsala, Sweden).

For assay [3], the target named is T3, FVIIa 407C-PEG20k-FVIIa 407C (human, UniProt P08709 61-212; P08709 213-466, N-glycosylated Asn322; Cys407 of the two protomers cross-linked through maleimide-PEG20k-maleimide; 10 gamma-carboxylated glutamic acid (GLA) residues; O-glycosylated Ser52 and Ser60; N-glycosylated …).
T3 construct: range 1-152;range 153-406
T3 sequence (light): T1 sequence (light)
T3 sequence (heavy): T1 sequence (heavy)
The description is as above. Here is the method: as §2

Assay [4] has as its target T1, FVIIa 407C. Put plainly: SPR (Biacore 3000), biotinylated sTF E219C on SA chip, FVIIa as analyte; KD calculated from kon and koff. Here is the method:
as §1

Assay [5] concerns the target T2, FVIIa 407C-PEG3.4k-FVIIa 407C. In words: SPR (Biacore 3000), biotinylated sTF E219C on SA chip, FVIIa dimer as analyte; KD calculated from kon and koff. The method, then:
as §1

The target in assay [6] is T3, FVIIa 407C-PEG20k-FVIIa 407C. The assay is described as above. The method, then: as §1

B1: sTF (1-219) Glu219→Cys (E219C), biotinylated (receptor)
chain: SGTTNTVAAYNLTWKSTNFKTILEWEPKPVNQVYTVQISTKSGDWKSKCFYTTDTECDLTDEIVKDVKQTYLARVFSYPAGNVESTGSAGEPLYENSPEFTPYLETNLGQPTIQSFEQVGTKVNVTVEDERTLVRRNNTFLSLRDVFGKDLIYTLYYWKSSSSGKKTAKTNTNEFLIDVDKGENYCFSVQAVIPSRTVNRKSTDSPVECMGQEKGEFRC
modifications: Cys219 alkylated with biotin-PEO-iodoacetamide (biotinylated at its free cysteine) ; chain 1 pos 219: Cys alkylated with biotin-PEO-iodoacetamide (biotinylated at its free cysteine), written C. It was captured through this biotin on a streptavidin (SA) sensor chip.
notes: Immobilized on a streptavidin (SA) sensor chip at 2.2 fmol/mm^2 (~50 RU); also called sTF E219C; biotinylated sTF E19C
Consider B1, for which the koff – broadly, the first-order rate constant of dissociation – with FVIIa 407C [1] was found to be 0.0015 s⁻¹; in assay [2], 0.00015 s⁻¹; in assay [3], 0.00016 s⁻¹. Further, the kon (as a rule, the rate constant with which the complex forms) with FVIIa 407C [1] came out at 280000 M⁻¹ s⁻¹; in assay [2], 350000 M⁻¹ s⁻¹; in assay [3] it was 310000 M⁻¹ s⁻¹. The values for the Kd (with FVIIa 407C [4]; in assay [5]; in assay [6]) were 5.5 nM, 0.4 nM and 0.5 nM, respectively.
